Measured values as given in PMC8548916.

Molecular target: Cnm1 (contact nucleus mitochondria 1) tagged with GFP on its C terminus (S. cerevisiae)
Experiment: co-IP; GFP-Trap beads precipitate Cnm1-GFP from cleared yeast lysate (1% digitonin, 150 mM NaCl, 50 mM Tris-HCl pH 8.0, 5% glycerol, 1 mM MgCl2), 1 h at 4°C; Western blot with antibodies against GFP and mCherry; enrichment by densitometry

With “Tom70 tagged with mCherry on its C terminus (from UniProt P07213 1-617) (natural protein)” the fold enrichment in the immunoprecipitate relative to Tom20 was 2 fold.
